{"source": "patent US20120316071A1", "about": "(published 2012)", "binders": {"B1": {"name": "Fab VH1-46_IGHD6-6*01_IGHJ1*01 S102A/S103P/S104F/H111F S84G & L6_IGKJ1*01 (Fab, V domains shown)", "VH": "QVQLVQSGAEVKKPGASVKVSCKASGYTFTSYYMHWVRQAPGQGLEWMGIINPSGGSTSYAQKFQGRVTMTRDTSTSTVYMELGSLRSEDTAVYYCAREEYAPFSAEYFQFWGQGTLVTVSS", "VL": "not shown", "notes": "Fab expressed in E. coli: VH joined to CH1 from Plasmid A (with His6 and Flag tags), VL joined to kappa CL from Plasmid C; also called APFF S84G"}, "B2": {"name": "Fab VH1-46_IGHD6-6*01_IGHJ1*01 S102A/S103P/S104F/H111F S84N & L6_IGKJ1*01 (Fab, V domains shown)", "VH": "B1 VH with G84N", "VL": "not shown", "notes": "Fab expressed in E. coli: VH joined to CH1 from Plasmid A (with His6 and Flag tags), VL joined to kappa CL from Plasmid C; also called APFF S84N"}, "B3": {"name": "Fab VH1-46_IGHD6-6*01_IGHJ1*01 S102A/S103P/S104F/H111F S84Q & L6_IGKJ1*01 (Fab, V domains shown)", "VH": "B1 VH with G84Q", "VL": "not shown", "notes": "Fab expressed in E. coli: VH joined to CH1 from Plasmid A (with His6 and Flag tags), VL joined to kappa CL from Plasmid C; also called APFF S84Q"}, "B4": {"name": "Fab VH1-46_IGHD6-6*01_IGHJ1*01 S102A/S103P/S104F/H111F S84H & L6_IGKJ1*01 (Fab, V domains shown)", "VH": "B1 VH with G84H", "VL": "not shown", "notes": "Fab expressed in E. coli: VH joined to CH1 from Plasmid A (with His6 and Flag tags), VL joined to kappa CL from Plasmid C; also called APFF S84H"}}, "key": {"[1]": {"target": "T1, rHuman Notch-1/Fc Chimera, CF (R&D Systems Cat#3647-TK) (human, UniProt P46531 19-526)", "T1 construct": "Bought recombinant Fc chimera; Fc part of the bought chimera not given", "test": "ECL Multispot (MSD) assay, antigen spotted on plate, 10 nM Fab; blank spot 378"}, "[2]": {"target": "T2, rHuman ErbB2/Fc Chimera, CF (R&D Systems Cat#1129-ER) (human, UniProt P04626 23-652)", "T2 construct": "Bought recombinant Fc chimera; also called human epidermal growth factor 2 receptor; Fc part of the bought chimera not given", "test": "ECL Multispot (MSD) assay, antigen spotted on plate, 10 nM Fab; blank spot 378"}, "[3]": {"target": "T3, rHuman P-Cadherin/Fc Chimera, CF (R&D Systems Cat#861-PC) (human, UniProt P22223 108-654)", "T3 construct": "Bought recombinant Fc chimera; Fc part of the bought chimera not given", "test": "ECL Multispot (MSD) assay, antigen spotted on plate, 10 nM Fab; blank spot 378"}, "[4]": {"target": "T4, rHuman HGF R/c-MET/Fc Chimera, CF (R&D Systems Cat#358-MT/CF) (human, UniProt P08581 25-932)", "T4 construct": "Bought recombinant Fc chimera; also called HGF R/Fc; hepatocyte growth factor receptor; Fc part of the bought chimera not given", "T4 sequence (P08581 25-932, change not shown)": "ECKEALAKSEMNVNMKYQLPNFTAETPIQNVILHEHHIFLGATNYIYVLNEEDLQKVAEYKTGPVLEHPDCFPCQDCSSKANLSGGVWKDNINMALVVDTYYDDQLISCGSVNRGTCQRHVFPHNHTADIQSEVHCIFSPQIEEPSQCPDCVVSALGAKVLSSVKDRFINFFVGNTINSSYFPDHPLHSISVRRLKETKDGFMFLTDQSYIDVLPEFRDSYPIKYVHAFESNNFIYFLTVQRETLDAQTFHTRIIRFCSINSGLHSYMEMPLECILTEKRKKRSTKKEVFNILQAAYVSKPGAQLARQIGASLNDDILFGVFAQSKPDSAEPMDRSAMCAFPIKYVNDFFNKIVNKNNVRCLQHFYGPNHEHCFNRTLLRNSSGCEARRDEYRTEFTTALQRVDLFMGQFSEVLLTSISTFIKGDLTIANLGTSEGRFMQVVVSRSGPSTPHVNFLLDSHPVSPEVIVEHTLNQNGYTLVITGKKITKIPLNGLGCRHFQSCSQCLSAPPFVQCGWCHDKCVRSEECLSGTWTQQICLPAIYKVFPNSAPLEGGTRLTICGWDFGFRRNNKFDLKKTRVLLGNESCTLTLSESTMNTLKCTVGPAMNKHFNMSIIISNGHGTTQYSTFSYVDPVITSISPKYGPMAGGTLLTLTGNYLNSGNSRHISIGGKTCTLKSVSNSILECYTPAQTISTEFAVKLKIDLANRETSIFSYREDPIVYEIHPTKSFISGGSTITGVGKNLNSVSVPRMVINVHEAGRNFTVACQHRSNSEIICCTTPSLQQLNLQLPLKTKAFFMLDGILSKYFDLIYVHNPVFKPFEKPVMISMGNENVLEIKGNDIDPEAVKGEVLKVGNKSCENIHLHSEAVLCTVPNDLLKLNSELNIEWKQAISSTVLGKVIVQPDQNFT", "test": "ECL Multispot (MSD) assay, antigen spotted on plate, 10 nM Fab; blank spot 378"}, "[5]": {"target": "T5, Recombinant Human DLL4 (R&D Systems Cat#1506-D4/CF) (human, UniProt Q9NR61 27-524)", "T5 construct": "Bought recombinant protein; also called delta-like protein 4; rHuman DLL4", "test": "ECL Multispot (MSD) assay, antigen spotted on plate, 10 nM Fab; blank spot 378"}, "[6]": {"target": "T6, rHuman IGF-1 sR, CF (R&D Systems Cat#391-GR) (human, UniProt P08069 31-932)", "T6 construct": "Bought soluble receptor; also called insulin-like growth factor-1 soluble receptor", "test": "ECL Multispot (MSD) assay, antigen spotted on plate, 10 nM Fab; blank spot 378"}, "[7]": {"target": "T7, rHuman EGF R/Fc Chimera, CF (R&D Systems Cat#344-ER) (human, UniProt P00533 25-645)", "T7 construct": "Bought recombinant Fc chimera; also called epidermal growth factor receptor; Fc part of the bought chimera not given", "test": "ECL Multispot (MSD) assay, antigen spotted on plate, 10 nM Fab; blank spot 378"}, "[8]": {"target": "T8, rHuman Erythropoietin R/Fc Chimera, CF (R&D Systems Cat#963-ER) (human, UniProt P19235 25-250)", "T8 construct": "Bought recombinant Fc chimera; also called EPO R; EPO R/Fc; Fc part of the bought chimera not given", "T8 sequence (looked up)": "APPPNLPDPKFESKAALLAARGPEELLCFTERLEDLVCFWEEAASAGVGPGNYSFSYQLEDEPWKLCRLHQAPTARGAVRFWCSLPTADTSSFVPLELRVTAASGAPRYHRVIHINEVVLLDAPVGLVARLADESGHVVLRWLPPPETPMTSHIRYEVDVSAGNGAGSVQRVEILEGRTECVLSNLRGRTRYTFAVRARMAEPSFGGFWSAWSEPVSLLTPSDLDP", "test": "ECL Multispot (MSD) assay, antigen spotted on plate, 10 nM Fab; blank spot 378"}, "[9]": {"target": "T9, rHuman CD44/Fc Chimera, CF (R&D Systems Cat#3660-CD) (human, UniProt P16070 21-220)", "T9 construct": "Bought recombinant Fc chimera; Fc part of the bought chimera not given", "test": "ECL Multispot (MSD) assay, antigen spotted on plate, 10 nM Fab; blank spot 378"}, "[10]": {"target": "T1, rHuman Notch-1/Fc Chimera, CF (R&D …)", "test": "ECL Multispot (MSD) assay, antigen spotted on plate, 10 nM Fab; blank spot 271"}, "[11]": {"target": "T2, rHuman ErbB2/Fc Chimera, CF (R&D …)", "test": "ECL Multispot (MSD) assay, antigen spotted on plate, 10 nM Fab; blank spot 271"}, "[12]": {"target": "T3, rHuman P-Cadherin/Fc Chimera, CF (R&D …)", "test": "ECL Multispot (MSD) assay, antigen spotted on plate, 10 nM Fab; blank spot 271"}, "[13]": {"target": "T4, rHuman HGF R/c-MET/Fc Chimera, CF (R&D …)", "test": "ECL Multispot (MSD) assay, antigen spotted on plate, 10 nM Fab; blank spot 271"}, "[14]": {"target": "T5, Recombinant Human DLL4 (R&D Systems …)", "test": "ECL Multispot (MSD) assay, antigen spotted on plate, 10 nM Fab; blank spot 271"}, "[15]": {"target": "T6, rHuman IGF-1 sR, CF (R&D Systems …)", "test": "ECL Multispot (MSD) assay, antigen spotted on plate, 10 nM Fab; blank spot 271"}, "[16]": {"target": "T7, rHuman EGF R/Fc Chimera, CF (R&D …)", "test": "ECL Multispot (MSD) assay, antigen spotted on plate, 10 nM Fab; blank spot 271"}, "[17]": {"target": "T8, rHuman Erythropoietin R/Fc Chimera, CF …", "test": "ECL Multispot (MSD) assay, antigen spotted on plate, 10 nM Fab; blank spot 271"}, "[18]": {"target": "T9, rHuman CD44/Fc Chimera, CF (R&D Systems …)", "test": "ECL Multispot (MSD) assay, antigen spotted on plate, 10 nM Fab; blank spot 271"}, "[19]": {"target": "T1, rHuman Notch-1/Fc Chimera, CF (R&D …)", "test": "ECL Multispot (MSD) assay, antigen spotted on plate, 10 nM Fab; blank spot 296"}, "[20]": {"target": "T2, rHuman ErbB2/Fc Chimera, CF (R&D …)", "test": "ECL Multispot (MSD) assay, antigen spotted on plate, 10 nM Fab; blank spot 296"}, "[21]": {"target": "T3, rHuman P-Cadherin/Fc Chimera, CF (R&D …)", "test": "ECL Multispot (MSD) assay, antigen spotted on plate, 10 nM Fab; blank spot 296"}, "[22]": {"target": "T4, rHuman HGF R/c-MET/Fc Chimera, CF (R&D …)", "test": "ECL Multispot (MSD) assay, antigen spotted on plate, 10 nM Fab; blank spot 296"}, "[23]": {"target": "T5, Recombinant Human DLL4 (R&D Systems …)", "test": "ECL Multispot (MSD) assay, antigen spotted on plate, 10 nM Fab; blank spot 296"}, "[24]": {"target": "T6, rHuman IGF-1 sR, CF (R&D Systems …)", "test": "ECL Multispot (MSD) assay, antigen spotted on plate, 10 nM Fab; blank spot 296"}, "[25]": {"target": "T7, rHuman EGF R/Fc Chimera, CF (R&D …)", "test": "ECL Multispot (MSD) assay, antigen spotted on plate, 10 nM Fab; blank spot 296"}, "[26]": {"target": "T8, rHuman Erythropoietin R/Fc Chimera, CF …", "test": "ECL Multispot (MSD) assay, antigen spotted on plate, 10 nM Fab; blank spot 296"}, "[27]": {"target": "T9, rHuman CD44/Fc Chimera, CF (R&D Systems …)", "test": "ECL Multispot (MSD) assay, antigen spotted on plate, 10 nM Fab; blank spot 296"}, "[28]": {"target": "T1, rHuman Notch-1/Fc Chimera, CF (R&D …)", "test": "ECL Multispot (MSD) assay, antigen spotted on plate, 10 nM Fab; blank spot 302"}, "[29]": {"target": "T2, rHuman ErbB2/Fc Chimera, CF (R&D …)", "test": "ECL Multispot (MSD) assay, antigen spotted on plate, 10 nM Fab; blank spot 302"}, "[30]": {"target": "T3, rHuman P-Cadherin/Fc Chimera, CF (R&D …)", "test": "ECL Multispot (MSD) assay, antigen spotted on plate, 10 nM Fab; blank spot 302"}, "[31]": {"target": "T4, rHuman HGF R/c-MET/Fc Chimera, CF (R&D …)", "test": "ECL Multispot (MSD) assay, antigen spotted on plate, 10 nM Fab; blank spot 302"}, "[32]": {"target": "T5, Recombinant Human DLL4 (R&D Systems …)", "test": "ECL Multispot (MSD) assay, antigen spotted on plate, 10 nM Fab; blank spot 302"}, "[33]": {"target": "T6, rHuman IGF-1 sR, CF (R&D Systems …)", "test": "ECL Multispot (MSD) assay, antigen spotted on plate, 10 nM Fab; blank spot 302"}, "[34]": {"target": "T7, rHuman EGF R/Fc Chimera, CF (R&D …)", "test": "ECL Multispot (MSD) assay, antigen spotted on plate, 10 nM Fab; blank spot 302"}, "[35]": {"target": "T8, rHuman Erythropoietin R/Fc Chimera, CF …", "test": "ECL Multispot (MSD) assay, antigen spotted on plate, 10 nM Fab; blank spot 302"}, "[36]": {"target": "T9, rHuman CD44/Fc Chimera, CF (R&D Systems …)", "test": "ECL Multispot (MSD) assay, antigen spotted on plate, 10 nM Fab; blank spot 302"}}, "note": "Where a chain is given by its changes, count along the chain named. In names and notes the source's numbering stands."}
{"binder": "B1", "values": [{"measurement": "ECL signal", "setting": "[1]", "result": 473}, {"measurement": "ECL signal", "setting": "[2]", "result": 299}, {"measurement": "ECL signal", "setting": "[3]", "result": 434}, {"measurement": "ECL signal", "setting": "[4]", "result": 419}, {"measurement": "ECL signal", "setting": "[5]", "result": 131000}, {"measurement": "ECL signal", "setting": "[6]", "result": 395}, {"measurement": "ECL signal", "setting": "[7]", "result": 435}, {"measurement": "ECL signal", "setting": "[8]", "result": 429}, {"measurement": "ECL signal", "setting": "[9]", "result": 457}]}
{"binder": "B2", "values": [{"measurement": "ECL signal", "setting": "[10]", "result": 309}, {"measurement": "ECL signal", "setting": "[11]", "result": 307}, {"measurement": "ECL signal", "setting": "[12]", "result": 167}, {"measurement": "ECL signal", "setting": "[13]", "result": 375}, {"measurement": "ECL signal", "setting": "[14]", "result": 135000}, {"measurement": "ECL signal", "setting": "[15]", "result": 324}, {"measurement": "ECL signal", "setting": "[16]", "result": 337}, {"measurement": "ECL signal", "setting": "[17]", "result": 415}, {"measurement": "ECL signal", "setting": "[18]", "result": 251}]}
{"binder": "B3", "values": [{"measurement": "ECL signal", "setting": "[19]", "result": 416}, {"measurement": "ECL signal", "setting": "[20]", "result": 311}, {"measurement": "ECL signal", "setting": "[21]", "result": 357}, {"measurement": "ECL signal", "setting": "[22]", "result": 255}, {"measurement": "ECL signal", "setting": "[23]", "result": 122000}, {"measurement": "ECL signal", "setting": "[24]", "result": 373}, {"measurement": "ECL signal", "setting": "[25]", "result": 347}, {"measurement": "ECL signal", "setting": "[26]", "result": 288}, {"measurement": "ECL signal", "setting": "[27]", "result": 372}]}
{"binder": "B4", "values": [{"measurement": "ECL signal", "setting": "[28]", "result": 331}, {"measurement": "ECL signal", "setting": "[29]", "result": 301}, {"measurement": "ECL signal", "setting": "[30]", "result": 319}, {"measurement": "ECL signal", "setting": "[31]", "result": 374}, {"measurement": "ECL signal", "setting": "[32]", "result": 138000}, {"measurement": "ECL signal", "setting": "[33]", "result": 353}, {"measurement": "ECL signal", "setting": "[34]", "result": 306}, {"measurement": "ECL signal", "setting": "[35]", "result": 318}, {"measurement": "ECL signal", "setting": "[36]", "result": 382}]}
